B1: Hammerhead Ribozyme (parent)
chain: ACCGGAUGUGCUUUCCGGUCUGAUGAGUCCGUGAGGACGAAACAG

Variants of: B1
Assay: self-cleavage, relative activity (ratio to wild type); higher = more cleavage; co-transcriptional

Variant | self-cleavage
C16G G17A | 0.532
C16G G17U | 0.681
C16G G17C | 0.445
C16G G36A | 0.414
C16G G36U | 0.314
C16G G36C | 0.362
C16G U19A | 0.253
C16G U19C | 0.344
C16G U19G | 0.33
G17A G31C | 0.652
G17A G31U | 0.788
G17A G31A | 0.875
C16U G25A | 0.338
C16U G25U | 0.356
C16U G25C | 0.265
C16U G31C | 0.844
C16U G31U | 1.2
C16U G31A | 0.731
C16G C30G | 0.473
C16G C30A | 0.712
C16G C30U | 0.899
G17A G25A | 0.353
G17A G25U | 0.372
G17A G25C | 0.321

Variant | self-cleavage
G17C G18C | 0.347
G17C G18U | 0.455
G17C G18A | 0.361
G17A G39C | 0.333
G17A G39A | 0.326
G17A G39U | 0.316
G17C G25C | 0.403
G17C G25U | 0.296
G17C G25A | 0.362
G17C C20G | 0.279
G17C C20A | 0.313
G17C C20U | 0.331
C16G G27A | 0.42
C16G G27U | 0.304
C16G G27C | 0.35
G17C A34G | 0.436
G17C A34U | 0.501
G17C A34C | 0.438
G17C G22A | 0.274
G17C G22U | 0.284
G17C G22C | 0.326
G17A G35C | 0.548
G17A G35A | 0.623
G17A G35U | 0.455

Variant | self-cleavage
C16G A40U | 0.321
C16G A40C | 0.372
C16G A40G | 0.431
C16A U19G | 0.295
C16A U19A | 0.34
C16A U19C | 0.39
G17A A34C | 0.562
G17A A34U | 0.613
G17A A34G | 0.56
C16U U32A | 1.02
C16U U32C | 0.879
C16U U32G | 1
G17C G31U | 0.713
G17C G31C | 0.563
G17C G31A | 0.699
G17C A41U | 0.318
G17C A41G | 0.388
G17C A41C | 0.272
G17C A42G | 0.335
G17C A42U | 0.284
G17C A42C | 0.316
C16U C38A | 0.73
C16U C38U | 1.03
C16U C38G | 0.717

Variant | self-cleavage
C16G G35A | 0.459
C16G G35C | 0.44
C16G G35U | 0.472
C16U G45U | 0.688
C16U G45A | 0.89
C16U G45C | 0.921
C16G C38G | 0.358
C16G C38U | 0.619
C16G C38A | 0.453
G17A U21C | 0.294
G17A U21A | 0.351
G17A U21G | 0.39
C16G U21G | 0.278
C16G U21C | 0.354
C16G U21A | 0.349
C16A U32C | 1.09
C16A U32A | 1.07
C16A U32G | 0.899
G17A C29G | 0.462
G17A C29A | 0.441
G17A C29U | 0.68
C16U U28C | 0.874
C16U U28A | 0.576
C16U U28G | 0.798

Variant | self-cleavage
C16U G27C | 0.783
C16U G27A | 0.858
C16U G27U | 0.551
C16G G25U | 0.384
C16G G25C | 0.285
C16G G25A | 0.357
C16G G31U | 1.05
C16G G31A | 1.16
C16G G31C | 0.823
G17A G45U | 0.411
G17A G45C | 0.385
G17A G45A | 0.413
C16U A41C | 0.301
C16U A41G | 0.376
C16U A41U | 0.264
C16U C30G | 0.719
C16U C30U | 1.02
C16U C30A | 0.831
G17C C43G | 0.311
G17C C43U | 0.404
G17C C43A | 0.319
C16G U28C | 0.269
C16G U28G | 0.592
C16G U28A | 0.407

Variant | self-cleavage
C16U G36C | 0.375
C16U G36A | 0.636
C16U G36U | 0.507
C16G G22U | 0.334
C16G G22A | 0.336
C16G G22C | 0.284
C16G G18C | 0.376
C16G G18A | 0.533
C16G G18U | 0.744
C16U A23C | 0.474
C16U A23U | 0.358
C16U A23G | 0.423
G17A A40G | 0.361
G17A A40C | 0.347
G17A A40U | 0.354
C16U C29G | 0.69
C16U C29A | 0.586
C16U C29U | 0.988
G17A G36C | 0.263
G17A G36A | 0.442
G17A G36U | 0.418
G17A C38G | 0.478
G17A C38A | 0.488
G17A C38U | 0.586

Variant | self-cleavage
C16A G45U | 0.563
G17A A26U | 0.447
G17A A26G | 0.297
G17A A26C | 0.272
G17A U24A | 0.704
G17A U24G | 0.592
G17A U24C | 0.88
C16G C20U | 0.408
C16G C20A | 0.336
C16G C20G | 0.317
C16U A40G | 0.294
C16U A40U | 0.301
C16U A40C | 0.507
G17A A41G | 0.332
G17A A41U | 0.347
G17A A41C | 0.259
G17C G33A | 0.564
G17C G33C | 0.458
C16U U24C | 1.12
C16U U24G | 1.16
C16U U24A | 0.747
G17A G33C | 0.713
G17A G33A | 0.794

Source: the RNAGym collection of RNA variant scans (doi:10.7554/elife.80360)
